Test results published in publication PMC10397247.
Each block holds one binder with its values, some of them ahead of it.

How the values were obtained:
Assay in all cases: two-hybrid library CCmax;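 further: natural log of median RNA to DNA barcode read ratio; higher means stronger binding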
[1] = target: T1, Core_IIII-es_KEKK; conditions: mean of both orientations
T1 chain: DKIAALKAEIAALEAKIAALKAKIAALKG

[2] = target: T2, APC1115-AA
T2 chain: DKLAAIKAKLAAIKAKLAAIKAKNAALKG

[3] = target: T3, APC1242-AA; conditions: mean of both orientations
T3 chain: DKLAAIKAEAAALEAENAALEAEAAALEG

[4] = target: T4, APC1916-AA; conditions: mean of both orientations
T4 chain: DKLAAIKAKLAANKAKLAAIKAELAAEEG

[5] = target: T5, APC1987-AA; conditions: mean of both orientations
T5 chain: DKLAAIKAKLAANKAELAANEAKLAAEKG

[6] = target: T6, APC222-AA; conditions: mean of both orientations
T6 chain: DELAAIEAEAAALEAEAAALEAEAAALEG

[7] = target: T7, APC2257-AA; conditions: mean of both orientations
T7 chain: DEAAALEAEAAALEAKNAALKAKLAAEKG

[8] = target: T8, APC2375-AA; conditions: mean of both orientations
T8 chain: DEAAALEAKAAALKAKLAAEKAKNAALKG

[9] = target: T9, APC2474-AA; conditions: mean of both orientations
T9 chain: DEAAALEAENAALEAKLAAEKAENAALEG

[10] = target: T10, APC2543-AA; conditions: mean of both orientations
T10 chain: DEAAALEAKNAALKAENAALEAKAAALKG

[11] = target: T11, APC2556-AA; conditions: mean of both orientations
T11 chain: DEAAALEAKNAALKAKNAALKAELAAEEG

[12] = target: T12, APC2724-AA; conditions: mean of both orientations
T12 chain: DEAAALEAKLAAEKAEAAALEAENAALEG

[13] = target: T13, APC2811-AA; conditions: mean of both orientations
T13 chain: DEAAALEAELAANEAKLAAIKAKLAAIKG

[14] = target: T14, APC2981-AA; conditions: mean of both orientations
T14 chain: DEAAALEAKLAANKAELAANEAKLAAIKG

[15] = target: T15, APC3265-AA; conditions: mean of both orientations
T15 chain: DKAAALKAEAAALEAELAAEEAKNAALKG

[16] = target: T16, APC3323-AA; conditions: mean of both orientations
T16 chain: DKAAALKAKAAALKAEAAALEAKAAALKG

[17] = target: T17, APC3354-AA; conditions: mean of both orientations
T17 chain: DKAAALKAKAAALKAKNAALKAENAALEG

[18] = target: T18, APC3881-AA; conditions: mean of both orientations
T18 chain: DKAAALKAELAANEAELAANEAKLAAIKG

[19] = target: T19, APC4100-AA; conditions: mean of both orientations
T19 chain: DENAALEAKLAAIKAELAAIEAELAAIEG

[20] = target: T20, APC4336-AA; conditions: mean of both orientations
T20 chain: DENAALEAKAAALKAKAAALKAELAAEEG

[21] = target: T21, APC5009-AA; conditions: mean of both orientations
T21 chain: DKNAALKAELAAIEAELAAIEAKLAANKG

[22] = target: T22, APC542-AA; conditions: mean of both orientations
T22 chain: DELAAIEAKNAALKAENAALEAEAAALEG

[23] = target: T23, APC5531-AA; conditions: mean of both orientations
T23 chain: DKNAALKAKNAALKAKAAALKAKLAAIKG

[24] = target: T24, APC6088-AA; conditions: mean of both orientations
T24 chain: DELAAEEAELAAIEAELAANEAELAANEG

[25] = target: T25, APC7524-AA; conditions: mean of both orientations
T25 chain: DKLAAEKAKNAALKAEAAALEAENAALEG

[26] = target: T26, APC8401-AA; conditions: mean of both orientations
T26 chain: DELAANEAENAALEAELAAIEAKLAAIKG

[27] = target: T27, APC8516-AA; conditions: mean of both orientations
T27 chain: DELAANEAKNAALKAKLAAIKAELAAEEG

[28] = target: T28, APC9141-AA; conditions: mean of both orientations
T28 chain: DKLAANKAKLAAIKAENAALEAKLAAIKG

[29] = target: T29, APC9182-AA; conditions: mean of both orientations
T29 chain: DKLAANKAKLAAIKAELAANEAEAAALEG

[30] = target: T30, APC9291-AA; conditions: mean of both orientations
T30 chain: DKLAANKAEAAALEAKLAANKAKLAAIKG

[31] = target: T31, APC9806-AA; conditions: mean of both orientations
T31 chain: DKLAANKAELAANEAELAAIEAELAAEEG

interaction score [1]: 1.78
Binder: DEIAALEAKIAALKAEIAALEAEIAALEG [Core_IIII-es_EKEE]

interaction score [2]: -0.803
interaction score [3]: -1.35
interaction score [4]: -1.84
interaction score [5]: -1.74
interaction score [6]: 0.216
interaction score [7]: -1.42
interaction score [8]: -1.67
interaction score [9]: -1.58
interaction score [10]: -1.49
interaction score [11]: -1.69
interaction score [12]: -1.69
interaction score [13]: -1.19
interaction score [14]: -1.43
interaction score [15]: -1.52
interaction score [16]: -1.52
interaction score [17]: -1.93
interaction score [18]: -1.47
interaction score [19]: 0.913
interaction score [20]: -1.61
interaction score [21]: -0.451
interaction score [22]: -1.93
interaction score [23]: -1.86
interaction score [24]: -1.12
interaction score [25]: -1.68
interaction score [26]: -1.04
interaction score [27]: -1.51
interaction score [28]: -1.58
interaction score [29]: -1.98
interaction score [30]: -1.83
interaction score [31]: -1.67
Binder: DKLAAIKAKLAAIKAKLAAIKAKNAALKG [APC1115-AA]
